# In paper doi:10.1101/2020.11.05.369280 (bioRxiv, 2020):
# Molecular target: EIIA^Glc (UniProt P69783 2-169)
# Experiment: SPR + ELISA
# Chain of EIIA^Glc (P69783 2-169): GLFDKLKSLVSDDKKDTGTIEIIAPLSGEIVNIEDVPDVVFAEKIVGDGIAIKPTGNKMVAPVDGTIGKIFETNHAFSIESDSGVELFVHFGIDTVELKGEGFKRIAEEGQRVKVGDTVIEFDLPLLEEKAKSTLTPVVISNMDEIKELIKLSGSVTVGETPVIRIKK
binder,measurement,value
EIIB^Glc (domain or fragment) EDATEDAKATGTSEMAPALVAAFGGKENITNLDACITRLRVSVADVSKVDQAGLKKLGAAGVVVAGSGVQAIFGTKSDNLKTEMDEYIRN,Kd,> 10 µM
